# Source: US20180112202A1 (ACE BIOSCIENCES A S, published 2018)
# B1: recombinant human Galactocerebroside beta-Galactosidase (rhGALC), full length 80 kDa form (enzyme)
# chain: YVLDDSDGLGREFDGIGAVSGGGATSRLLVNYPEPYRSQILDYLFKPNFGASLHILKVEIGGDGQTTDGTEPSHMHYALDENYFRGYEWWLMKEAKKRNPNITLIGLPWSFPGWLGKGFDWPYVNLQLTAYYVVTWIVGAKRYHDLDIDYIGIWNERSYNANYIKILRKMLNYQGLQRVKIIASDNLWESISASMLLDAELFKVVDVIGAHYPGTHSAKDAKLTGKKLWSSEDFSTLNSDMGAGCWGRILNQNYINGYMTSTIAWNLVASYYEQLPYGRCGLMTAQEPWSGHYVVESPVWVSAHTTQFTQPGWYYLKTVGHLEKGGSYVALTDGLGNLTIIIETMSHKHSKCIRPFLPYFNVSQQFATFVLKGSFSEIPELQVWYTKLGKTSERFLFKQLDSLWLLDSDGSFTLSLHEDELFTLTTLTTGRKGSYPLPPKSQPFPSTYKDDFNVDYPFFSEAPNFADQTGVFEYFTNIEDPGEHHFTLRQVLNQRPITWAADASNTISIIGDYNWTNLTIKCDVYIETPDTGGVFIAGRVNKGGILIRSARGIFFWIFANGSYRVTGDLAGWIIYALGRVEVTAKKWYTLTLTIKGHFASGMLNDKSLWTDIPVNFPKNGWAAIGTHSFEFAQFDNFLVEATR
# modifications: glycosylated (about 7% carbohydrate w:w, 2-3 mol mannose-6-phosphate per mol), sites not stated
# notes: Expressed in CHO cells and purified from harvest; P45803 looks like a misprint; also called Galactocerebrosidase; Galactosylceramidase
# Target: the molecule itself
# Assay: Native PAGE, self-association; the cell continues below as 'dimer ~7 forms visible from monomer to multimer'
# Excerpt: Native PAGE was run for information of rhGALC formations at neutral pH. […] Final product TG1106 was compared to rhGALC in-house standard StG03 and the pattern was similar. It could be that the lowest band (apparent MW 80-100 kDa) is rhGALC monomer and the second band is rhGALC dimer, followed by formations adding on more rhGALC monomers and/or dimers. Up to seven forms of rhGALC were visualized on the gel. rhGALC dimer was the most pronounced independent on load. An earlier electron microscopy study has verified that several forms exist of which the major form has a diameter of ˜20 nm, which could correspond to rhGALC dimer.
protein,measurement,value
B1,binding result,binds
